Starred links: 1 amine or outer side, 2 acyl side, 3 side chain; linkers in the order of their positions; H or OH if unused. Positions of bridges follow the written chain, without caps; N, C: chain ends. Non-standard residues stand in square brackets, D forms with d. Primed or numbered codes have the meaning given here. No end group written: not given here. mXylyl(5) = bridging moiety between the two residues (meta-xylyl); mXylyl″ = bridging moiety between the two marked residues; mXylyl = bridging moiety between residues (mXylyl(i,j)); Trp(7-aza) = N[C@@H](Cc1c[nH]c2ncccc12)C(=O)O; NMePhe(4-F) = CN[C@@H](Cc1ccc(F)cc1)C(=O)O; mXylylene = c1cc(C[*:1])cc(C[*:2])c1; oXylylene = c1ccc(C[*:2])c(C[*:1])c1; pXylylene = c1cc(C[*:2])ccc1C[*:1]; NMeD = CN[C@@H](CC(=O)O)C(=O)O; Chg = N[C@H](C(=O)O)C1CCCCC1; Phg = N[C@H](C(=O)O)c1ccccc1; Tle = CC(C)(C)[C@H](N)C(=O)O; NMeS = CN[C@@H](CO)C(=O)O; NMeA = CN[C@@H](C)C(=O)O; Nva = CCC[C@H](N)C(=O)O; Sar = CNCC(=O)O
Biological target: human C5 protein (human, UniProt P01031 19-673; P01031 678-1676)
Test: cell-based or functional assay

Binder	Avg. IC50, human hemolysis assay (complete human sera) [nM]
Ac-[Nva]C[Phg]T[Trp(7-aza)]EY[NMeS]HC[Nva]-NH2 (bridge 2-10) [R3042]	> 100000
MCVERFCDVY-NH2 (linker 2-7 via mXylyl) [R3045]	> 100000
Ac-[Nva]C[Phg]T[Trp(7-aza)]EY[NMeS]HCA-NH2 (linker 2-10 via mXylyl) [R3039]	240
MCVERFC-NH2 (linker 2-7 via mXylyl(5)) [R3047]	> 100000
Ac-[Nva]C[Phg]TAEY[NMeS]HC[Nva]-NH2 (linker 2-10 via mXylyl) [R3034]	> 50000
Ac-[Nva]C[Phg]T[Trp(7-aza)]EY[NMeA]HC[Nva]-NH2 (linker 2-10 via mXylyl) [R3037]	276
Ac-[Nva]CY[Trp(7-aza)][Sar][Tle][Nva][Trp(7-aza)]EYP[Phg]P-NH2 (SMILES CCC[C@H](NC(C)=O)C(=O)N[C@@H](CS)C(=O)N[C@@H](Cc1ccc(O)cc1)C(=O)N[C@@H](Cc1c[nH]c2ncccc12)C(=O)N(C)CC(=O)N[C@H](C(=O)N[C@@H](CCC)C(=O)N[C@@H](Cc1c[nH]c2ncccc12)C(=O)N[C@@H](CCC(=O)O)C(=O)N[C@@H](Cc1ccc(O)cc1)C(=O)N1CCC[C@H]1C(=O)N[C@H](C(=O)N1CCC[C@H]1C(N)=O)c1ccccc1)C(C)(C)C) [R3005]	66.7
[Nva]CY[NMeS][Phg][NMePhe(4-F)][NMeS]H[NMePhe(4-F)][Sar]C-NH2 (linker 2-11 via mXylyl(5)) [R3051]	> 100000
Ac-CVERFC[NMeD][Tle]Y[Trp(7-aza)]EYP[Chg][Nva]-NH2 (linker 1-6 via mXylyl″) [R3172]	12
[Nva]CY[Tle][Phg]N[Sar]LC[Phg][NMeA]-NH2 (linker 2-9 via mXylyl(5)) [R3052]	> 100000
Ac-[Nva]CYNN[Tle]E[Trp(7-aza)]EYP[Phg][Tle]-NH2 (SMILES CCC[C@H](NC(C)=O)C(=O)N[C@@H](CS)C(=O)N[C@@H](Cc1ccc(O)cc1)C(=O)N[C@@H](CC(N)=O)C(=O)N[C@@H](CC(N)=O)C(=O)N[C@H](C(=O)N[C@@H](CCC(=O)O)C(=O)N[C@@H](Cc1c[nH]c2ncccc12)C(=O)N[C@@H](CCC(=O)O)C(=O)N[C@@H](Cc1ccc(O)cc1)C(=O)N1CCC[C@H]1C(=O)N[C@H](C(=O)N[C@H](C(N)=O)C(C)(C)C)c1ccccc1)C(C)(C)C) [R3004]	53.5
MCSERYCEVRWEY-NH2 (linker 2-7 via mXylyl) [R3020]	24.6
[Nva]CCN[Tle][Phg]C[Tle][NMeS]C[Tle]-NH2 (linker (positions not given here) via mXylylene; also: mXylyl-bicyclo: Cys pairing not given here) [R3053]	> 100000
Ac-[Nva]CYEN[Tle]Y[Trp(7-aza)]EYP[Phg][Nva]C-NH2 (linker 2-14 via mXylyl) [R3019]	1320
Ac-[Nva]C[Phg]T[Trp(7-aza)]EYPHC[Nva]-NH2 (linker 2-10 via pXylylene) [R3065]	394
Ac-[Nva]C[Phg]T[Trp(7-aza)]AY[NMeS]HC[Nva]-NH2 (linker 2-10 via mXylyl) [R3035]	> 50000
Ac-CVERFCDVYWEF-NH2 (linker 1-6 via mXylyl(5)) [R3048]	19.3
Ac-[Nva]C[Chg]T[Trp(7-aza)]EY[NMeS]HC[Nva]-NH2 (linker 2-10 via pXylylene) [R3058]	> 10000

Binder	Avg. IC50, human hemolysis assay (complete human sera) [nM]
Ac-[Nva]CYEN[Tle]Y[Trp(7-aza)]EY[Sar][Nva][NMeS]-NH2 (SMILES CCC[C@H](NC(C)=O)C(=O)N[C@@H](CS)C(=O)N[C@@H](Cc1ccc(O)cc1)C(=O)N[C@@H](CCC(=O)O)C(=O)N[C@@H](CC(N)=O)C(=O)N[C@H](C(=O)N[C@@H](Cc1ccc(O)cc1)C(=O)N[C@@H](Cc1c[nH]c2ncccc12)C(=O)N[C@@H](CCC(=O)O)C(=O)N[C@@H](Cc1ccc(O)cc1)C(=O)N(C)CC(=O)N[C@@H](CCC)C(=O)N(C)[C@@H](CO)C(N)=O)C(C)(C)C) [R3001]	67.2
Ac-YEN[Tle]YWEYP[Phg][Nva]-NH2 (SMILES CCC[C@H](NC(=O)[C@@H](NC(=O)[C@@H]1CCCN1C(=O)[C@H](Cc1ccc(O)cc1)NC(=O)[C@H](CCC(=O)O)NC(=O)[C@H](Cc1c[nH]c2ccccc12)NC(=O)[C@H](Cc1ccc(O)cc1)NC(=O)[C@@H](NC(=O)[C@H](CC(N)=O)NC(=O)[C@H](CCC(=O)O)NC(=O)[C@H](Cc1ccc(O)cc1)NC(C)=O)C(C)(C)C)c1ccccc1)C(N)=O) [R3041]	71.3
MCVERFCDV-NH2 (linker 2-7 via mXylyl(5)) [R3046]	> 100000
Ac-[Nva]C[Phg]T[Trp(7-aza)]EY[NMeS]HC[Nva]P[Nva]-NH2 (cysteine pairing not given here) [R3022]	> 10200
Ac-[Nva]CYEN[Tle]YCEYP[Phg][Nva]-NH2 (linker 2-8 via mXylyl) [R3017]	> 100000
MCVERFCDVYW-NH2 (linker 2-7 via mXylyl) [R3044]	> 50000
Ac-AC[Phg]T[Trp(7-aza)]EY[NMeS]HC[Nva]-NH2 (linker 2-10 via mXylyl) [R3031]	1090
Ac-[Tle]Y[Trp(7-aza)]EYP[Phg][Nva]-NH2 (SMILES CCC[C@H](NC(=O)[C@@H](NC(=O)[C@@H]1CCCN1C(=O)[C@H](Cc1ccc(O)cc1)NC(=O)[C@H](CCC(=O)O)NC(=O)[C@H](Cc1c[nH]c2ncccc12)NC(=O)[C@H](Cc1ccc(O)cc1)NC(=O)[C@@H](NC(C)=O)C(C)(C)C)c1ccccc1)C(N)=O) [R3028]	> 10000
Ac-[Nva]CYEN[Tle]Y[Trp(7-aza)]ECP[Phg][Nva]-NH2 (linker 2-10 via mXylyl) [R3018]	> 5730
Ac-[Nva]C[Phg]T[Trp(7-aza)]EY[NMeS]AC[Nva]-NH2 (linker 2-10 via mXylyl) [R3038]	140
MCVERFCD[Tle]Y[Trp(7-aza)]EYP[Phg][Nva]-NH2 (linker 2-7 via mXylyl(5)) [R3057]	12.4
Ac-[Nva]C[Phg]T[Trp(7-aza)]EY[NMeS]HC[Nva]P[Nva] (bridge 2-10) [R3040]	> 100000
Ac-C[Tle]Y[Trp(7-aza)]EY[NMeS]HC-NH2 (linker 1-9 via mXylyl) [R3016]	> 13000
Ac-[Nva]C[Phg]T[Trp(7-aza)]EY[NMeS]HC[Nva]-NH2 (linker 2-10 via oXylylene) [R3049]	> 3100
Ac-[Nva]C[Phg]A[Trp(7-aza)]EY[NMeS]HC[Nva]-NH2 (linker 2-10 via mXylyl) [R3033]	131
Ac-[Nva]C[Phg]T[Trp(7-aza)]EA[NMeS]HC[Nva]-NH2 (linker 2-10 via mXylyl) [R3036]	> 50000
Ac-[Nva]CAT[Trp(7-aza)]EY[NMeS]HC[Nva]-NH2 (linker 2-10 via mXylyl) [R3032]	> 10000

Source: patent US11535650 (RA PHARMACEUTICALS, dated 2022)
